For experiment [1], the target named is Wnt3a (human (endogenous in H322 and H460)) (UniProt P56704).
Experiment [2] has the same target. This is another data set of the same source.

Experimental findings from PMC3351461 are described below.

Sequence of UniProt P56704 (P56704 19-352): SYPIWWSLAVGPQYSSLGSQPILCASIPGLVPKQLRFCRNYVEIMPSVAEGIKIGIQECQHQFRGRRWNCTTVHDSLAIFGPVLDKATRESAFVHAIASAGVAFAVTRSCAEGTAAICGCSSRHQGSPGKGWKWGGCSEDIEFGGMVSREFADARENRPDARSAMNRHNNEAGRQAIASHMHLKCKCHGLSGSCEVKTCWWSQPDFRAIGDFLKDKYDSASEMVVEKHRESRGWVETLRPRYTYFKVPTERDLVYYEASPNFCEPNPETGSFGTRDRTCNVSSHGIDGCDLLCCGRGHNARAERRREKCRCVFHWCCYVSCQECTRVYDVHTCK

In the case of “soluble LRP6 receptor (sLRP6E1E2) (domain or fragment)”, in experiment [1], the nuclear beta-catenin (immunofluorescence, quantified) in H322 cells with Wnt3a, decrease in dE1-k35/sLRP6E1E2-transduced cells compared with dE1-k35/LacZ turned out to be 98.1%. Also, in experiment [2], the TOPflash luciferase activity in H322 cells with recombinant Wnt3a (100 ng/ml), lower in dE1-k35/sLRP6E1E2-transduced than in dE1-k35/LacZ-transduced cells turned out to be 52%; the TOPflash luciferase activity in H322 cells without added Wnt3a, reduction by dE1-k35/sLRP6E1E2 compared with dE1-k35/LacZ came to 12%; the TOPflash luciferase activity in H460 cells with recombinant Wnt3a (100 ng/ml), lower in dE1-k35/sLRP6E1E2-transduced than in dE1-k35/LacZ-transduced cells is 48%; the TOPflash luciferase activity in H460 cells without added Wnt3a, reduction by dE1-k35/sLRP6E1E2 compared with dE1-k35/LacZ came out at 48%.
